Experimental data published in the supplement of paper PMC10567573.

B1: ZNF263 (parent)
chain: RTHTGEKPYKCTLCGENFSHRSNL

Variants of: B1
Test: protein stability index of a GFP-peptide fusion (GPS, HEK-293T) (PSI 1-6); higher = more stable
Conditions: c terminus: a fixed tail appended
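Further: lentivirally expressed fusions sorted by FACS into six bins by GFP to DsRed ratio, PSI derived from sequencing read proportions per bin multiplied by bin number.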

Protein stability index: each site, then its substitutions
C11: M 2.78, V 2.51, E 3.97, T 2.91, P 3.02, W 2.04, Q 3.24, G 3.59, L 2.9, R 2.81, Y 2.42, H 3.13, D 3.87, F 2.06, I 2.56, A 2.67, K 2.92, S 3.36, N 3.16
Y9: H 2.61, S 2.38, T 2.33, R 2.14, N 2.1, V 2.33, E 2.4, F 1.96, P 2.04, K 2.45, A 2.15, G 1.6, C 3.37, L 1.79, M 1.69, Q 1.84, D 2.44, W 1.72, I 1.52
K10: G 2.06, P 2.03, W 2.38, C 2.44, R 1.81, F 1.76, E 2.04, L 1.86, M 1.97, V 2.05, Q 2.36, D 2.68, A 1.75, H 2.2, N 1.91, T 1.78, S 1.58, Y 1.93, I 1.72
L13: E 3.3, H 2.06, G 2.42, S 2.64, R 1.56, V 2.14, I 2.44, Y 2.04, F 2.2, A 2.18, Q 2.16, P 2.31, W 1.88, C 2.81, M 1.76, D 3.21, K 2.18, T 2.57, N 3.03
P8: C 2.51, D 2.44, W 1.46, M 2.3, Y 1.64, Q 2.09, K 2.06, G 2.44, R 1.99, T 1.9, A 2.1, N 1.96, L 1.98, H 2.06, E 2.82, F 1.38, V 1.91, S 1.78, I 1.63
R21: C 2.46, V 1.98, A 2.59, S 1.96, E 2.69, Q 1.94, M 2.22, L 1.64, K 2.13, I 1.92, Y 1.96, N 2.19, T 2.11, W 1.68, G 2.3, D 3.15, H 2.21, F 2.01, P 2.08
F18: R 2.15, V 1.88, L 1.96, S 2.37, Y 1.91, K 1.74, E 2.22, A 1.86, H 2.76, Q 2.1, G 2.29, W 2.07, D 2.27, I 2.17, M 1.82, T 1.95, C 3.74, P 2.19, N 2.09
S19: E 2.29, V 2.51, C 2.06, M 1.96, Y 1.97, A 2.21, W 1.74, Q 2.09, N 2.08, P 1.77, I 2.81, K 1.66, H 1.48, T 1.91, D 2.21, L 1.81, G 1.96, R 2.01, F 2.12
T12: V 1.65, Y 1.5, S 1.87, P 2.4, K 1.98, I 1.92, F 2.1, H 1.68, Q 2.04, G 1.74, M 1.43, E 1.8, D 2.01, W 2.22, R 2.37, C 1.84, L 2.23, A 2.07, N 2.44
N23: H 1.96, L 1.69, I 2.32, K 2.17, E 2.31, F 2.23, C 3.48, M 2.03, G 2.06, A 2.28, D 1.88
H20: F 1.67, Y 2.13, I 2.04, N 1.95, D 1.84, C 2.03, E 2.04, S 2.32, A 2.06, K 1.8, M 1.98, P 1.82, L 2.03, V 1.89, G 1.92, R 1.94, T 2.11, W 2.28, Q 2.26
G15: W 1.84, F 2.17, D 2.1, V 1.57, M 1.9, K 2.13, I 2.13, E 1.76, C 1.59, A 1.68, H 2.23, Q 2.15, L 1.97, Y 1.82, T 1.79, N 1.87, R 1.75, S 1.62, P 2.57
C14: D 2.96, Y 2.52, Q 3.45, S 3.01, F 2.66, P 2.83, A 3.07, H 2.84, K 3.48, I 2.98, N 3.19, V 3.3, G 3.13, M 3.43, W 2.39, L 2.73, R 3.17, T 3.37, E 4.05
N17: D 1.7, M 1.76, Q 1.91, T 1.6, E 2.4, W 2.42, Y 1.91, F 2.07, I 2.26, R 2.09, A 1.99, H 2.15, S 2.02, G 2.12, C 2.25, V 1.92, L 1.98, P 1.81, K 2.26
K7: W 2.03, R 2.04, Y 1.73, P 1.62, G 2.31, N 1.9, C 3.39, S 2.2, L 1.86, E 2.12, A 2.04, F 1.85, D 2.02, T 1.94, V 2.37, I 1.99, Q 1.71, M 1.97, H 2.19
E16: W 1.77, F 2.3, P 1.94, T 2.51, M 1.86, H 1.87, R 2.03, N 1.77, S 1.99, Q 2.46, C 1.98, V 2.17, G 1.68, L 1.5, I 1.83, D 1.93, K 1.59, Y 2.08, A 1.8
E6: P 2.68, Y 2.64, F 1.62, M 2.37, C 2.44, R 2.34, L 2.18, V 2.08, H 1.71, S 2.39, Q 2.34, N 1.67, D 2.37, A 2.15, G 1.88, K 1.9, T 2.26, W 1.58, I 1.69
S22: Y 1.63, I 1.9, M 2, L 1.94, F 2, A 1.83, P 1.79, G 2.14, W 1.44, V 1.91, C 3.19, R 2.4, Q 2.01, H 2.4, T 1.92, E 2.23, K 2.46, N 2.33, D 2.11
